We go through 14 sequences from patent US20110301073.

Experiment in all cases: cell_activity
In series [1] the test system is C1 TALEN 101380 (synthetic (Xanthomonas TALE)). As to conditions: paired with 101381.
Series [2] concerns C1 TALEN 101370 (synthetic (Xanthomonas TALE)). As to conditions: paired with 101371.
Series [3] has as its system RPD1 TALEN 101389 (synthetic (Xanthomonas TALE)). As to conditions: paired with 101393; Neuro 2A.
The test system of series [4] is C1 TALEN 101378 (synthetic (Xanthomonas TALE)). As to conditions: paired with 101379.
Series [5] deals with TALEN 101166 (synthetic (Xanthomonas TALE)). As to conditions: paired with 101240; 5.3% with 101167.
For series [6], the system named is TALEN 101240 (HD half repeat) (synthetic (Xanthomonas TALE)). As to conditions: paired with 101239; 10.7% with 101166.
In series [7] the test system is RPD1 TALEN 101388 (synthetic (Xanthomonas TALE)). As to conditions: paired with 101391; Neuro 2A.
Series [8] deals with RPD1 TALEN 101391 (synthetic (Xanthomonas TALE)). As to conditions: paired with 101390; site given 3'-5', reversed here.
Series [9] relates to RPD1 TALEN 101390 (synthetic (Xanthomonas TALE)). As to conditions: paired with 101391; printed site lacks one A relative to the locus.
For series [10], the system named is RPD1 TALEN 101393 (synthetic (Xanthomonas TALE)). As to conditions: paired with 101389; site given 3'-5', reversed here.
For series [11], the system named is TALEN 101239 (HD half repeat) (synthetic (Xanthomonas TALE)). As to conditions: paired with 101167; 11.2% with 101240.
Series [12] deals with TALEN 101167 (synthetic (Xanthomonas TALE)). As to conditions: paired with 101239; 5.3% with 101166.
Series [13] has as its system C1 TALEN 101381 (synthetic (Xanthomonas TALE)). As to conditions: paired with 101380; site given 3'-5', reversed here.
In series [14] the test system is C1 TALEN 101371 (synthetic (Xanthomonas TALE)). As to conditions: paired with 101370; site given 3'-5', reversed here.

Regarding “TCCTACGACGAGGAGGAT (double strand) [101380 site]”, the activity (relative DLSSA units) in series [1] was determined as 10.3.

On to “TGGGGAGGAGGGCGTGCT (double strand) [101370 site]”, for which the activity (relative DLSSA units) in series [2] amounted to 5.

For “TTATTTGAAGAAACTAT (double strand) [101389 site]”, in series [3], the activity (relative DLSSA units) was determined as 9.9.

“TGAACTACCTCCGGCCC (double strand) [101378 site]” had an activity (relative DLSSA units) in series [4] of 7.1.

The sequence “GAGCGGCCCCGCCCGT (double strand) [101166 site]” displayed an activity in [5] of 10.7 % NHEJ.

“GAATCGTTGCCCCCGC (double strand) [101240 site]”: the activity in series [6] stood at 11.2 % NHEJ.

“TTATTTGAAGAAACT (double strand) [101388 site]”: the activity (relative DLSSA units) in series [7] is 7.6.

In series [8], “TGGGAGTGTTGCAT (double strand) [101391 site]” showed an activity (relative DLSSA units) of 9.7.

In the case of “TTTGAAGAACTATATT (double strand) [101390 site]”, the activity (relative DLSSA units) in [9] was determined as 9.7.

In series [10], “TGAACTAGTGGGAGTGTT (double strand) [101393 site]” displayed an activity (relative DLSSA units) of 9.9.

“ATGAGCGGCCCCGCC (double strand) [101239 site]” registered an activity in series [11] of 13.1 % NHEJ.

In series [12], “CGTTGCCCCCGCCCT (double strand) [101167 site]” came in with an activity of 13.1 % NHEJ.

For “TTGCCGAGGAGCCTGT (double strand) [101381 site]”, the activity (relative DLSSA units) in series [13] is 10.3.

In [14], “TCGTCCACGCCCCTCTCT (double strand) [101371 site]” yielded an activity (relative DLSSA units) of 5.
